Consider 2 molecules from patent US20190284293A1 (Bristol-Myers Squibb, published 2019).

Several values for one entry are separate records, joined by “and”; a condition that tells them apart may be missing. Equal values may be shown once.

A word on the EC50: it is the midpoint of the concentration-response curve. For orientation: Kd means the constant that tells how readily two partners part at equilibrium. Higher therefore signals weaker binding. The koff is the first-order rate constant of dissociation. High values mean a short-lived complex, low ones a long-lived complex. In general, kon refers to the second-order rate constant of association.

Assay [1] has as its target T1, rhCD73 bound to his-tag magnet beads (human, UniProt P21589 27-547, limits assumed).
T1 sequence: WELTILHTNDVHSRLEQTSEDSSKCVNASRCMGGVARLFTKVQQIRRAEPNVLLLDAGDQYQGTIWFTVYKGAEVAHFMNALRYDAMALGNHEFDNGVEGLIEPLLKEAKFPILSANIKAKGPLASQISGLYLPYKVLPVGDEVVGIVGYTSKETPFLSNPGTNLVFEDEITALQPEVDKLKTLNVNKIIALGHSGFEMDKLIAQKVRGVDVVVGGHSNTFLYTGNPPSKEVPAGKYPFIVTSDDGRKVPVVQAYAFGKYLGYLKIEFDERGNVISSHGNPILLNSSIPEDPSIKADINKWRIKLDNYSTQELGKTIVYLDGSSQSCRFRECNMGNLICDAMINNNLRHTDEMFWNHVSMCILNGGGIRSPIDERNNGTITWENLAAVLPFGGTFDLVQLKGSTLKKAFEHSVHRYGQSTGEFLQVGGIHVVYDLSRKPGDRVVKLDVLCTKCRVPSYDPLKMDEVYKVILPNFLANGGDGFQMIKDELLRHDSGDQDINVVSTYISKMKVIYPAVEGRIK
The assay is described as follows: cell-based or functional assay.

The target of assay [2] is T2, human CD73 on cells (human, UniProt P21589 27-549).
T2 sequence: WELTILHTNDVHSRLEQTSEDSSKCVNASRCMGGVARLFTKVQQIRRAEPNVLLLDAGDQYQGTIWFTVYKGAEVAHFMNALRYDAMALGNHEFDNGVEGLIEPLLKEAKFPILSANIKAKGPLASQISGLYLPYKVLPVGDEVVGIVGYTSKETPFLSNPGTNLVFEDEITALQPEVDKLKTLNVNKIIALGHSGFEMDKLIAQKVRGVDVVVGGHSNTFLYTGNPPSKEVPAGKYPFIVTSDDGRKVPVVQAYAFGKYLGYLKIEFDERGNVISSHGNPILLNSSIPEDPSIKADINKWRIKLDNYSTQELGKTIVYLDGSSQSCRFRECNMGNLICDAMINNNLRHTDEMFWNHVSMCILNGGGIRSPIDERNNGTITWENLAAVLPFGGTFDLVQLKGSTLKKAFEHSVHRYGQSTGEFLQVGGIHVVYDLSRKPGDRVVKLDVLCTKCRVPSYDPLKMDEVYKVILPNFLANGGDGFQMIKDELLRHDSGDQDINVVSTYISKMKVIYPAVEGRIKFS
As to the kind of experiment: cell-based or functional assay.

Assay [3] addresses T2, human CD73 on cells. The assay is described as follows: flow cytometry, Calu6 cells. How it is done: Titration binding curves were produced with CD73 antibodies on Calu6 (CD73 endogenous expressors; human pulmonary adenocarcinoma cell line), DMS114 (CD73 negative; human small cell lung cancer cell line), CHO-cynoCD73 (cynoCD73-transfected) and CHO-K1 (cynoCD73 negative), cells using Alexa Fluor® 647 Goat Anti-Human IgG (H+L) as a secondary antibody, Invitrogen Cat#A-21445, using the following method: 100000 cells were plated in 100 uL PBS+2% FBS per well and blocked for 20 min. Using a U-bottom 96-deep well plate, volumes of antibody and PBS+2% FBS were combined as dictated by Table 12 below.
An 8-point serial dilution was performed by diluting a sixth of the volume (90 uL) into […], PBS+2% FBS. The cell plate was spun down for 5 minutes at 1500 rpm. 100 uL of diluted antibody was added per well of the plate. 100 uL PBS+2% FBS were added to all other wells. […] The plates were spun down at 1500 rpm for 5 min and washed in 200 uL PBS+2% FBS per well. The plates were washed again, resuspended in 200 uL 2% FBS in PBS per well and the samples were run.
In general terms: Flow cytometry measures light scatter and fluorescence of single cells or particles in a stream.

Assay [4] addresses T3, N-hCD73-his (N-terminal domain of human CD73, residues 26-336, His tag) (human, UniProt P21589 26-336).
T3 sequence: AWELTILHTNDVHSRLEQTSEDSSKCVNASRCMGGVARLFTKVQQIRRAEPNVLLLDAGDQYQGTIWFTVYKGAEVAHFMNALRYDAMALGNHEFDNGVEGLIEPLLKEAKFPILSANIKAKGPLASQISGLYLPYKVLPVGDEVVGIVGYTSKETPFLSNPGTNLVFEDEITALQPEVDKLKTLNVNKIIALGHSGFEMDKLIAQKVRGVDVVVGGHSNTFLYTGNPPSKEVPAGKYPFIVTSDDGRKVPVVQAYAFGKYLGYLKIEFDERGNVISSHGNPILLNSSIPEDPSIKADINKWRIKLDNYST
As to the kind of experiment: SPR, mAb captured on protein A. Background: In SPR one partner is held on a chip, and binding of the other changes the refractive index at the surface.

For assay [5], the target named is T2, human CD73 on cells. The assay is described as follows: binding titration on Calu6 cells, average of 2-6 experiments.

B1: CD73.10-IgG2-C219S-IgG1.1f (antibody)
heavy: QVQLVESGGGVVQPGRSLRLSCAASGFTFSNYGMHWVRQAPGKGLEWVAVIWYDESNKYYPDSVKGRFTISRDNSKNTLYLQMNSLRAEDTAVYYCARGGSSWYPDSFDIWGQGTMVTVSSASTKGPSVFPLAPCSRSTSESTAALGCLVKDYFPEPVTVSWNSGALTSGVHTFPAVLQSSGLYSLSSVVTVPSSNFGTQTYTCNVDHKPSNTKVDKTVERKSCVECPPCPAPPVAGPSVFLFPPKPKDTLMISRTPEVTCVVVDVSHEDPEVKFNWYVDGVEVHNAKTKPREEQYNSTYRVVSVLTVLHQDWLNGKEYKCKVSNKALPSSIEKTISKAKGQPREPQVYTLPPSREEMTKNQVSLTCLVKGFYPSDIAVEWESNGQPENNYKTTPPVLDSDGSFFLYSKLTVDKSRWQQGNVFSCSVMHEALHNHYTQKSLSLSPG
light: not shown
notes: also called CD73.10-IgG2CS-IgG1.1f; CD73.10-IgG2S-IgG1.1f
With B1, in assay [1], the “EC50 (nM), inhibition of bead-bound human CD73 enzymatic activity” value turned out to be 4.84 nM. For the same molecule, the “EC50 Calu6 inhibition” value with human CD73 on cells [2] is 0.77 nM. For the same molecule, in the assay with human CD73 on cells [3], the EC50 was 0.85 nM. In assay [4], the dissociation constant Kd was 5.7 nM and 6.8 nM; the dissociation rate constant (koff) is 0.0016 s⁻¹ and 0.0014 s⁻¹; the on-rate (kon) is 230000 M⁻¹ s⁻¹ and 240000 M⁻¹ s⁻¹. The molecule further showed an EC50 in the assay with human CD73 on cells [5] of 0.85 nM.

B2: CD73.10-IgG2-C219S (antibody)
heavy: QVQLVESGGGVVQPGRSLRLSCAASGFTFSNYGMHWVRQAPGKGLEWVAVIWYDESNKYYPDSVKGRFTISRDNSKNTLYLQMNSLRAEDTAVYYCARGGSSWYPDSFDIWGQGTMVTVSSASTKGPSVFPLAPCSRSTSESTAALGCLVKDYFPEPVTVSWNSGALTSGVHTFPAVLQSSGLYSLSSVVTVPSSNFGTQTYTCNVDHKPSNTKVDKTVERKSCVECPPCPAPPVAGPSVFLFPPKPKDTLMISRTPEVTCVVVDVSHEDPEVQFNWYVDGVEVHNAKTKPREEQFNSTFRVVSVLTVVHQDWLNGKEYKCKVSNKGLPAPIEKTISKTKGQPREPQVYTLPPSREEMTKNQVSLTCLVKGFYPSDIAVEWESNGQPENNYKTTPPMLDSDGSFFLYSKLTVDKSRWQQGNVFSCSVMHEALHNHYTQKSLSLSPG
light: not shown
notes: also called CD73.10-IgG2CS; CD73.10-IgG2S
Regarding B2, the “EC50 (nM), inhibition of bead-bound human CD73 enzymatic activity” value in assay [1] is 7.54 nM. Also, the “EC50 Calu6 inhibition” value with human CD73 on cells [2] stood at 0.84 nM. Also, it took 0.85 nM to reach a half-maximal effect with human CD73 on cells [3] (EC50). Besides, in assay [4], the Kd was 6.2 nM and 8.3 nM; the koff was 0.0014 s⁻¹ and 0.0018 s⁻¹; the kon was found to be 220000 M⁻¹ s⁻¹. The midpoint of the response with human CD73 on cells [5], the EC50, lay at 0.85 nM.
